Paper PMC5583172 (2017)
Where no end group is shown, it is not given here. [ ]: non-standard residue; d: D form. The star is where a group is joined. NMeF = CN[C@@H](Cc1ccccc1)C(=O)O; NHCH2CH2OH = OCCN*

Experiments:
[1] = target: mu opioid receptor (MOR) of wild type mouse brain (mouse (endogenous in brain), UniProt P42866 1-398)
[2] = target: human mu opioid receptor (MOR), stably expressed in HEK293 cells with GloSensor (human, UniProt P35372 1-400)
human mu opioid receptor (MOR), stably expressed in HEK293 cells with GloSensor, sequence (P35372 whole entry): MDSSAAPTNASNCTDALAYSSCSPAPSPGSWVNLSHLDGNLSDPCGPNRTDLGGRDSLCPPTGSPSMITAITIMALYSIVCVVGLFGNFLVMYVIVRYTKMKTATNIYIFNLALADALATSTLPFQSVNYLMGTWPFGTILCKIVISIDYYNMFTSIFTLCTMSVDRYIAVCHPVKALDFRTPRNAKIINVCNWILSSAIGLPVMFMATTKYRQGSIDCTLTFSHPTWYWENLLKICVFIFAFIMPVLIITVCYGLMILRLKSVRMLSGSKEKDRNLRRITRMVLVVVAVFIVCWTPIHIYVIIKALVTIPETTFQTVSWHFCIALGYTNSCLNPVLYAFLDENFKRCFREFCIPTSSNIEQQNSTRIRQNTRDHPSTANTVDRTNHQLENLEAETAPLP

mu opioid receptor (MOR) of wild type mouse brain, sequence (P42866 whole entry): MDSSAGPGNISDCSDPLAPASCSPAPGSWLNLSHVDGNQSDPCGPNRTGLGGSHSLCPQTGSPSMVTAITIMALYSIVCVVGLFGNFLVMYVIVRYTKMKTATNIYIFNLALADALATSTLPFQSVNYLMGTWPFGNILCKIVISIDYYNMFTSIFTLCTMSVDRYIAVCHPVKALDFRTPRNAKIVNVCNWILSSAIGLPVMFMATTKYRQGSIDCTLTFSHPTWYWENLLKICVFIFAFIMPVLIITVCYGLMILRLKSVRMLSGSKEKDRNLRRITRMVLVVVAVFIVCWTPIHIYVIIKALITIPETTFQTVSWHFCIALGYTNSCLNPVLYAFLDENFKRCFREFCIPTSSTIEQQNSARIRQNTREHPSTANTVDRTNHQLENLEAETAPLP

B1: DAMGO ([D-Ala2, N-MePhe4, Gly-ol]-enkephalin) (peptide)
chain: Y[dA]G[NMeF][NHCH2CH2OH]
- Ki [1]: 3.1 nM
- Ki [2]: 9.6 nM
